Assay [1] has as its target Sag1 (Saccharomyces cerevisiae) (UniProt P20840). As to the kind of experiment: cell-based or functional assay.
The target is the same in assay [2]. As to the kind of experiment: cell-based or functional assay. This is another data set of the same source.
The target of a further assay is Bfl1 (UniProt Q16548). As to the kind of experiment: affinity as tabulated ('known affinities'); method not stated.
The target of the next assay is BclW (UniProt Q92843). The description is as above.
Sequence of BclW (Q92843 1-182 limits assumed): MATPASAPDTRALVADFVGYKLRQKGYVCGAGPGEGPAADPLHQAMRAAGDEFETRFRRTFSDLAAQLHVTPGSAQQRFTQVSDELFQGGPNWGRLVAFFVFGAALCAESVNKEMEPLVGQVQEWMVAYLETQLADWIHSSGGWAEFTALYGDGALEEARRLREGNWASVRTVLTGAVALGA
The next assay addresses T1, BclB (UniProt Q9HD36).
T1 sequence (looked up): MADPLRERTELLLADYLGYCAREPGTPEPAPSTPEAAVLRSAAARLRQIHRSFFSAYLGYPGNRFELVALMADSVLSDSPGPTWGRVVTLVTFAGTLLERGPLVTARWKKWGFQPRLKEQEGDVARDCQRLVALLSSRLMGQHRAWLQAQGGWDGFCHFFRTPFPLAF
The assay is described as above.

The next assay addresses Bcl2 (UniProt P10415). Described as above.
For a further assay, the target named is Mcl1 (UniProt Q07820). Described as above.
Sequence of Mcl1 (Q07820 whole entry): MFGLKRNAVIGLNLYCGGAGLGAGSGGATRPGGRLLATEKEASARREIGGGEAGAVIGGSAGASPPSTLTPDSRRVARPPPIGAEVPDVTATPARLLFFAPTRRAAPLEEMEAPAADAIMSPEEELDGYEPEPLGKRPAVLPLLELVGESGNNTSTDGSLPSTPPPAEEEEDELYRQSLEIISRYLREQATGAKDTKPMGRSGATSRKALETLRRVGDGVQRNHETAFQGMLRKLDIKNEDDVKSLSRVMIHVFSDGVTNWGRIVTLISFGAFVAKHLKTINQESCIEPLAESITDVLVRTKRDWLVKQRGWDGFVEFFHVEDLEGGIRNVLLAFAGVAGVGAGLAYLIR
Another assay has as its target BclXL (UniProt Q07817). Described as above.

Here are results for 3 molecules from US20210054365A1.

Read-outs that look alike come from different tables or passages of the source.

A word on the Kd: it is the concentration at which binding is half-saturated. Higher therefore signals weaker binding.

Sequence of Bfl1 (Q16548 1-153 limits assumed): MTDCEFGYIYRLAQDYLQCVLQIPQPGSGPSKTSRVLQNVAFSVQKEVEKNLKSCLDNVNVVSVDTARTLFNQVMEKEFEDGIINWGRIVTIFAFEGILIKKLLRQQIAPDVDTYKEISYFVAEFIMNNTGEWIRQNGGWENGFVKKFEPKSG
Sequence of BclXL (Q07817 1-209 limits assumed): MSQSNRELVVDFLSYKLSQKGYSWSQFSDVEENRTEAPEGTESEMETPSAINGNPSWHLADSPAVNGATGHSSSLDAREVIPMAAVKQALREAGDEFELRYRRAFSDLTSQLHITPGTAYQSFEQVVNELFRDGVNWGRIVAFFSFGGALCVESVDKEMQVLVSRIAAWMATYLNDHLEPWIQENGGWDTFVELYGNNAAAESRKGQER
Sequence of Bcl2 (P10415 1-207 limits assumed): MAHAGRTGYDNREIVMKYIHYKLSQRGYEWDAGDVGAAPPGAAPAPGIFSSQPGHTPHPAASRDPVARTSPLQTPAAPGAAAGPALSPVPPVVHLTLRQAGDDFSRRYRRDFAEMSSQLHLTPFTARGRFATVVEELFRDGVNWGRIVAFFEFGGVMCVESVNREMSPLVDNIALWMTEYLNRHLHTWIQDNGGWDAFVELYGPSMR
Sequence of Sag1 (Saccharomyces cerevisiae) (P20840 20-627): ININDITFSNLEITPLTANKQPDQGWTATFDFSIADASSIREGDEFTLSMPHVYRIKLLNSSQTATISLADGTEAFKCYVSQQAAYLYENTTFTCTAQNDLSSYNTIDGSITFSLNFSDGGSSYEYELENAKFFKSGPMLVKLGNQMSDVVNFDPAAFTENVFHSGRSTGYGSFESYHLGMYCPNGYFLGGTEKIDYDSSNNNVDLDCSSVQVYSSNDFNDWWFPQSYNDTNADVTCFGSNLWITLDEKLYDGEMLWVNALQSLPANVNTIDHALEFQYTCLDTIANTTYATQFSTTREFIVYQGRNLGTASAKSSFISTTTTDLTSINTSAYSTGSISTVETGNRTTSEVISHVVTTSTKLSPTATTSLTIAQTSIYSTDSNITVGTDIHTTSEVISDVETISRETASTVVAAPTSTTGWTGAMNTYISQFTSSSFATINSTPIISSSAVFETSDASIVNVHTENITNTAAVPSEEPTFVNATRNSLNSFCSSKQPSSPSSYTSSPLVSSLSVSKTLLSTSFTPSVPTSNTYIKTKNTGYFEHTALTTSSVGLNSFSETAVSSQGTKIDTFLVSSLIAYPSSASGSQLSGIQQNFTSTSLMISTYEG

Aga2 (from UniProt P32781 19-87): the mating efficiency in assay [1] is above 50%; in assay [2], 57.1%.

B1: XINDI-XCDP07 (designed binder, from a related filing)
chain: ADPKKVLDKAKDRAENVVRKLKKELEELYKEARKLDLTQEMRDRIRLAAIAARIAAFGDIFHAIMEALEEARKLKKAGLVNSQQLDELKRRLEELDEEAAQRAEKLGKEFELKLEY
Turning to B1, the equilibrium dissociation constant (Kd) was determined as 7050 nM with Bfl1; 14.9 nM with BclW; 107 nM with BclB; 3.81 nM with Bcl2; 17.4 nM in the assay with Mcl1; 0.59 nM with BclXL.

B2: BINDI-BCDP01 (designed binder, from a related filing)
chain: ADPKKVLDKAKDQAENRVRELKQELERLYKEARKLDLTQEMRRKLEWRYIAAMLKAIGDILNAIAQAENEADKLKKAGLVNSQQLDELRRRLEELAKEAARKAHDYGREFQLKLEY
As to B2, the Kd is 518 nM in the assay with Bfl1; 2010 nM with BclW; 8.33 nM with BclB; 17.3 nM in the assay with Bcl2; 0.46 nM with Mcl1; 20.2 nM with BclXL.
